Positions of bridges follow the written chain, without caps; N, C: chain ends. Non-standard residues stand in square brackets, D forms with d. Groups on a side chain read outwards from the residue. No end group written: not given here. *: point of attachment. Dip = N[C@H](C(=O)O)C(c1ccccc1)c1ccccc1; azide = [N-]=[N+]=N*

Assay [1] concerns the target Ile83Glu memAb anti-HER2 IgG. The assay can be described thus: SPR; Ile83Glu memAb anti-HER2 amine-coupled on a CM5 chip, meditope flowed over at 30 uL/min, HBS-EP+, 25 °C, 1:1 model, global fit, n=1 (authors estimate the error at 10-50%).
Assay [2] addresses Ile83Glu memAb anti-HER2 IgG. The assay can be described thus: SPR; Ile83Glu memAb anti-HER2 amine-coupled on a CM5 chip, meditope flowed over at 30 uL/min, HBS-EP+, 37 °C, 1:1 model, global fit, n=4, standard deviation. A general note: In SPR one partner is held on a chip, and binding of the other changes the refractive index at the surface.
In assay [3] the target is memAb anti-HER2 (meditope-enabled, trastuzumab-based anti-HER2 antibody). The assay is described as follows: SPR; memAb anti-HER2 amine-coupled on a CM5 chip, meditope flowed over at 30 uL/min, HBS-EP+, 37 °C, 1:1 model, global fit, n=1 (authors estimate the error at 10-50%).
The target is the same in assay [4]. The assay is described as follows: SPR; memAb anti-HER2 amine-coupled on a CM5 chip, meditope flowed over at 30 uL/min, HBS-EP+, 25 °C, 1:1 model, global fit, n=1 (authors estimate the error at 10-50%).
Assay [5] addresses Ile83Glu memAb anti-HER2 IgG. The assay can be described thus: SPR; Ile83Glu memAb anti-HER2 IgG immobilized on the sensor chip, 37 °C, n=1, analyte as a two-fold dilution series from 500 pM to 39 pM, 1:1 interaction model.
Assay [6] deals with Ile83Glu anti-HER2 memAb. The assay can be described thus: SPR; memAb variant amine-coupled to a CM5 chip, peptide flowed over, HBS-EP+; temperature not told for this result (25 °C or 37 °C).
Assay [7] addresses anti-HER2 memAb (trastuzumab-based, meditope-enabled anti-HER2 antibody). The assay can be described thus: SPR; memAb variant amine-coupled to a CM5 chip, peptide flowed over at 30 uL/min, HBS-EP+, 37 °C, Biacore T100, 1:1 binding model.
Assay [8] shares this target. The assay is described as follows: SPR; memAb variant amine-coupled to a CM5 chip, peptide flowed over at 30 uL/min, HBS-EP+, 25 °C, Biacore T100, 1:1 binding model.
The target of assay [9] is Ile83Glu anti-HER2 memAb. The assay can be described thus: SPR; memAb variant amine-coupled to a CM5 chip, peptide flowed over at 30 uL/min, HBS-EP+, 37 °C, Biacore T100, 1:1 binding model.
Assay [10] has as its target Ile83Glu anti-HER2 memAb. The assay can be described thus: SPR; memAb variant amine-coupled to a CM5 chip, peptide flowed over at 30 uL/min, HBS-EP+, 25 °C, Biacore T100, 1:1 binding model.

memAb anti-HER2 (meditope-enabled, trastuzumab-based anti-HER2 antibody), sequence (heavy, as listed by the source, chain 1 of 2): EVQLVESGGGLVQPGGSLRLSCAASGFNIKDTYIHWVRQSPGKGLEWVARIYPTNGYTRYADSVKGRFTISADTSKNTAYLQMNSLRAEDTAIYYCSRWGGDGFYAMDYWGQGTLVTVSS
memAb anti-HER2 (meditope-enabled, trastuzumab-based anti-HER2 antibody), sequence (light, as listed by the source, chain 2 of 2): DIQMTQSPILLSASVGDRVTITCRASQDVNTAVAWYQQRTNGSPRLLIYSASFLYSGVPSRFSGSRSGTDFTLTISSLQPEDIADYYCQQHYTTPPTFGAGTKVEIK
anti-HER2 memAb (trastuzumab-based, meditope-enabled anti-HER2 antibody), sequence (heavy, as listed by the source, chain 1 of 2): as the sequence (heavy, as listed by the source, chain 1 of 2) above
Ile83Glu memAb anti-HER2 IgG, sequence (heavy, as listed by the source, chain 1 of 2): as above
Ile83Glu memAb anti-HER2 IgG, sequence (light, as listed by the source, chain 2 of 2): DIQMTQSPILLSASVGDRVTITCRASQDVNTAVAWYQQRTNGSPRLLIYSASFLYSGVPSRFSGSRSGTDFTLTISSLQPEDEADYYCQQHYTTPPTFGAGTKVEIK
Ile83Glu anti-HER2 memAb, sequence (heavy, as listed by the source, chain 1 of 2): as the sequence (heavy, as listed by the source, chain 1 of 2) above

Broadly, the koff is a measure of how fast the partners let go of each other. One may read the kon as a measure of how fast the partners come together. As a reminder, the Kd is the equilibrium constant for the complex coming apart. As to CQFDLSTRRLKC (disulfide 1-12) [original meditope …], the koff was 0.00059 s⁻¹ in [1], 0.0025 s⁻¹ in [2], 0.044 s⁻¹ in assay [3] and 0.016 s⁻¹ in assay [4]. Besides, the kon in assay [1] was 26000 M⁻¹ s⁻¹; in [2], 260000 M⁻¹ s⁻¹; in assay [3] it was 44000 M⁻¹ s⁻¹; in assay [4], 13000 M⁻¹ s⁻¹. In [2], this molecule yielded a Kd of 20 nM.
On to Ac-CQFDLSTRRLRCGGSK (disulfide 1-12 (inferred)) [long meditope (Ac)…], for which the Kd in assay [1] was 0.44 nM; in assay [2], 4 nM; in [3] it was 350 nM; in assay [4], 210 nM. Besides, the koff in assay [1] is 0.00031 s⁻¹; in assay [2], 0.00063 s⁻¹; in assay [3], 0.026 s⁻¹; in [4], 0.006 s⁻¹. Moreover, the kon in assay [1] is 710000 M⁻¹ s⁻¹; in assay [2], 160000 M⁻¹ s⁻¹; in assay [3], 75000 M⁻¹ s⁻¹; in [4], 28000 M⁻¹ s⁻¹.

B1: 5-diphenylalanine-8-Arg-(PEG)2-azidomeditope (peptide)
peptide: Ac-CQFD[Dip]STR([(PEG)2-azide])RLRCGGSK
modifications: disulfide 1-12 (inferred); also: arginine-(PEG)2-azide at position 8 by name (footnote: 9th place)
In assay [5], B1 registered a koff of 0.00014 s⁻¹ and a kon of 66000 M⁻¹ s⁻¹.
Broadly, the half-life is the time in which the quantity being followed falls by half. Read a high half-life as slow loss. As for CQFDLSTRRLKC (disulfide 1-12 (inferred)) [original meditope (…)], the Kd with Ile83Glu anti-HER2 memAb [6] came to 23 nM; in assay [7] it was 1000 nM; in [8] it was 1200 nM. In addition, in assay [7], the half-life came out at 0.267 min.
In the assay with Ile83Glu anti-HER2 memAb [9], Ac-CQFD[Dip]STRRLRCGGSK (disulfide 1-12 (inferred)) [5-diphenylalanine long meditope ((Ac)CQFDA(Ph)2…)] had a Kd of 0.4 nM and a half-life of 40 min. In the assay with Ile83Glu anti-HER2 memAb [10], the Kd was less than 0.026 nM and the koff is less than 1e-05 s⁻¹.

The record behind these values is PMC5910394, “Mechanically interlocked functionalization of monoclonal antibodies” (Nature Communications, 2018).
